Measured values: patent US20220040297A1 (Chugai, published 2022)
Where a chain is given by its changes, count along the chain named.

B1: GLS3000 S27aE (antibody, name in Kabat numbering, V domains shown)
VH: QVQLVESGGGVVQPGRSLRLSCAASGFTFSNAWMHWVRQAPGKGLEWVAQIKAKSNNYATYYAESVKGRFTISRDDSKNSLYLQMNSLKTEDTAVYYCRYVHYGAYYGVDAWGQGTTVTVSS
VL: DIVMTQSPLSLPVTPGEPASISCRSSQELVHSNRNTYLHWYQQKPGQAPRLLIYKVSNRFSGVPDRFSGSGSGTDFTLKISRVEAEDVGVYYCGQGTQVPYTFGQGTKLEIK
notes: one-arm format as m2
B2: GLS3000 S56Q (antibody, name in Kabat numbering, V domains shown)
VH: B1 VH
VL: B1 VL with E28S, S61Q
notes: one-arm format as m2
B3: GLS3000 S56F (antibody, name in Kabat numbering, V domains shown)
VH: B1 VH
VL: B1 VL with E28S, S61F
notes: one-arm format as m2
B4: GLS3000 S27eT (antibody, name in Kabat numbering, V domains shown)
VH: B1 VH
VL: B1 VL with E28S, S32T
notes: one-arm format as m2
B5: GLS3000 S56N (antibody, name in Kabat numbering, V domains shown)
VH: B1 VH
VL: B1 VL with E28S, S61N
notes: one-arm format as m2
B6: GLS3000 S27aG (antibody, name in Kabat numbering, V domains shown)
VH: B1 VH
VL: B1 VL with E28G
notes: one-arm format as m2
B7: GLS3000 S52Q (antibody, name in Kabat numbering, V domains shown)
VH: B1 VH
VL: B1 VL with E28S, S57Q
notes: one-arm format as m2
B8: GLS3000 S27eW (antibody, name in Kabat numbering, V domains shown)
VH: B1 VH
VL: B1 VL with E28S, S32W
notes: one-arm format as m2
B9: GLS3000 S27eE (antibody, name in Kabat numbering, V domains shown)
VH: B1 VH
VL: B1 VL with E28S, S32E
notes: one-arm format as m2
B10: GLS3000 S52A (antibody, name in Kabat numbering, V domains shown)
VH: B1 VH
VL: B1 VL with E28S, S57A
notes: one-arm format as m2
B11: GLS3000 S27eK (antibody, name in Kabat numbering, V domains shown)
VH: B1 VH
VL: B1 VL with E28S, S32K
notes: one-arm format as m2
B12: GLS3000 S27aP (antibody, name in Kabat numbering, V domains shown)
VH: B1 VH
VL: B1 VL with E28P
notes: one-arm format as m2
B13: GLS3000 S56L (antibody, name in Kabat numbering, V domains shown)
VH: B1 VH
VL: B1 VL with E28S, S61L
notes: one-arm format as m2
B14: GLS3000 S27eM (antibody, name in Kabat numbering, V domains shown)
VH: B1 VH
VL: B1 VL with E28S, S32M
notes: one-arm format as m2
B15: GLS3000 S56T (antibody, name in Kabat numbering, V domains shown)
VH: B1 VH
VL: B1 VL with E28S, S61T
notes: one-arm format as m2
B16: GLS3000 S27eQ (antibody, name in Kabat numbering, V domains shown)
VH: B1 VH
VL: B1 VL with E28S, S32Q
notes: one-arm format as m2
B17: GLS3000 S56E (antibody, name in Kabat numbering, V domains shown)
VH: B1 VH
VL: B1 VL with E28S, S61E
notes: one-arm format as m2
B18: GLS3000 S52Y (antibody, name in Kabat numbering, V domains shown)
VH: B1 VH
VL: B1 VL with E28S, S57Y
notes: one-arm format as m2
B19: GLS3000 S52D (antibody, name in Kabat numbering, V domains shown)
VH: B1 VH
VL: B1 VL with E28S, S57D
notes: one-arm format as m2
B20: GLS3000 S27eN (antibody, name in Kabat numbering, V domains shown)
VH: B1 VH
VL: B1 VL with E28S, S32N
notes: one-arm format as m2
B21: GLS3000 S56K (antibody, name in Kabat numbering, V domains shown)
VH: B1 VH
VL: B1 VL with E28S, S61K
notes: one-arm format as m2
B22: GLS3000 S56A (antibody, name in Kabat numbering, V domains shown)
VH: B1 VH
VL: B1 VL with E28S, S61A
notes: one-arm format as m2
B23: GLS3000 S27eD (antibody, name in Kabat numbering, V domains shown)
VH: B1 VH
VL: B1 VL with E28S, S32D
notes: one-arm format as m2
B24: GLS3000 S27eY (antibody, name in Kabat numbering, V domains shown)
VH: B1 VH
VL: B1 VL with E28S, S32Y
notes: one-arm format as m2
B25: GLS3000 S52P (antibody, name in Kabat numbering, V domains shown)
VH: B1 VH
VL: B1 VL with E28S, S57P
notes: one-arm format as m2
B26: GLS3000 S27aI (antibody, name in Kabat numbering, V domains shown)
VH: B1 VH
VL: B1 VL with E28I
notes: one-arm format as m2
B27: GLS3000 S27eH (antibody, name in Kabat numbering, V domains shown)
VH: B1 VH
VL: B1 VL with E28S, S32H
notes: one-arm format as m2
B28: GLS3000 S56G (antibody, name in Kabat numbering, V domains shown)
VH: B1 VH
VL: B1 VL with E28S, S61G
notes: one-arm format as m2
B29: GLS3000 S27eV (antibody, name in Kabat numbering, V domains shown)
VH: B1 VH
VL: B1 VL with E28S, S32V
notes: one-arm format as m2
B30: GLS3000 S56R (antibody, name in Kabat numbering, V domains shown)
VH: B1 VH
VL: B1 VL with E28S, S61R
notes: one-arm format as m2
B31: GLS3000 S27eP (antibody, name in Kabat numbering, V domains shown)
VH: B1 VH
VL: B1 VL with E28S, S32P
notes: one-arm format as m2
B32: GLS3000 S27aN (antibody, name in Kabat numbering, V domains shown)
VH: B1 VH
VL: B1 VL with E28N
notes: one-arm format as m2
B33: GLS3000 S56M (antibody, name in Kabat numbering, V domains shown)
VH: B1 VH
VL: B1 VL with E28S, S61M
notes: one-arm format as m2
B34: GLS3000 S27eI (antibody, name in Kabat numbering, V domains shown)
VH: B1 VH
VL: B1 VL with E28S, S32I
notes: one-arm format as m2
B35: GLS3000 S27eR (antibody, name in Kabat numbering, V domains shown)
VH: B1 VH
VL: B1 VL with E28S, S32R
notes: one-arm format as m2
B36: GLS3000 S27eF (antibody, name in Kabat numbering, V domains shown)
VH: B1 VH
VL: B1 VL with E28S, S32F
notes: one-arm format as m2
B37: GLS3000 S27eG (antibody, name in Kabat numbering, V domains shown)
VH: B1 VH
VL: B1 VL with E28S, S32G
notes: one-arm format as m2
B38: GLS3000 S27eL (antibody, name in Kabat numbering, V domains shown)
VH: B1 VH
VL: B1 VL with E28S, S32L
notes: one-arm format as m2
B39: GLS3000 S56I (antibody, name in Kabat numbering, V domains shown)
VH: B1 VH
VL: B1 VL with E28S, S61I
notes: one-arm format as m2
B40: GLS3000 S27aY (antibody, name in Kabat numbering, V domains shown)
VH: B1 VH
VL: B1 VL with E28Y
notes: one-arm format as m2
B41: GLS3000 S56D (antibody, name in Kabat numbering, V domains shown)
VH: B1 VH
VL: B1 VL with E28S, S61D
notes: one-arm format as m2
B42: GLS3000 S56P (antibody, name in Kabat numbering, V domains shown)
VH: B1 VH
VL: B1 VL with E28S, S61P
notes: one-arm format as m2
B43: GLS3000 S56H (antibody, name in Kabat numbering, V domains shown)
VH: B1 VH
VL: B1 VL with E28S, S61H
notes: one-arm format as m2

Target: CD3ε homodimer protein (human, UniProt P07766 23-126, limits assumed)
Sequence (P07766 23-126 limits assumed): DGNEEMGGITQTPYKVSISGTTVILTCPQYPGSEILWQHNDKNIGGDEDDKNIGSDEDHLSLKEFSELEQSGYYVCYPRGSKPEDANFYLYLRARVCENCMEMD
Assay: SPR, immobilized CD3ε homodimer;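 also: biacore T200 surface plasmon resonance at 25 °C, antibody variants flowed as analytes over amine-coupled CD3ε homodimer on a CM4 chip, variant binding amount divided by that of GLS3000 antibody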
Method: Each one-amino acid altered form constructed, expressed, and purified in the paragraph (6-2) was evaluated using Biacore T200 (GE Healthcare Japan Corp.). An appropriate amount of CD3ε homodimer protein was immobilized onto Sensor chip CM4 (GE Healthcare Japan Corp.) by the amine coupling method. Then, the antibody having an appropriate concentration was injected thereto as an analyte and allowed to interact with the CD3ε homodimer protein on the sensor chip. Then, the sensor chip was regenerated by the injection of 10 mmol/L glycine-HCl (pH 1.5). The assay was conducted at 25° C., and HBS-EP+ (GE Healthcare Japan Corp.) was used as a running buffer. […] Each parameter was calculated using Biacore T200 Evaluation Software (GE Healthcare Japan Corp.).
Specifically, when the amount of the GLS3000-containing antibody bound was defined as X and the amount of the L chain one-amino acid altered form bound was defined as Y, a value of Z (ratio of amounts bound)=Y/X was used.

Row | Binder | ratio of amounts bound (vs GLS3000)
1 | B1 | 0.81
2 | B2 | 1.04
3 | B3 | 1.32
4 | B4 | 0.97
5 | B5 | 0.92
6 | B6 | 1.03
7 | B7 | 1.05
8 | B8 | 1.55
9 | B9 | 0.76
10 | B10 | 0.93
11 | B11 | 1.59
12 | B12 | 0.99
13 | B13 | 1.02
14 | B14 | 1.23
15 | B15 | 0.97
16 | B16 | 1.1
17 | B17 | 0.71
18 | B18 | 1.12
19 | B19 | 0.63
20 | B20 | 1.16
21 | B21 | 1.46
22 | B22 | 1.16

Row | Binder | ratio of amounts bound (vs GLS3000)
23 | B23 | 0.69
24 | B24 | 1.2
25 | B25 | 0.33
26 | B26 | 1
27 | B27 | 1.23
28 | B28 | 0.92
29 | B29 | 1.08
30 | B30 | 1.36
31 | B31 | 1.26
32 | B32 | 1.1
33 | B33 | 1.05
34 | B34 | 1.07
35 | B35 | 1.58
36 | B36 | 1.32
37 | B37 | 1.04
38 | B38 | 1.17
39 | B39 | 0.99
40 | B40 | 1.1
41 | B41 | 0.77
42 | B42 | 0.95
43 | B43 | 1.05
